Data taken from patent publication US20140350088A1.

Target: human C5a receptor (human) (UniProt P21730)
Test: cell-based or functional assay

human C5a receptor (human), sequence (P21730 whole entry): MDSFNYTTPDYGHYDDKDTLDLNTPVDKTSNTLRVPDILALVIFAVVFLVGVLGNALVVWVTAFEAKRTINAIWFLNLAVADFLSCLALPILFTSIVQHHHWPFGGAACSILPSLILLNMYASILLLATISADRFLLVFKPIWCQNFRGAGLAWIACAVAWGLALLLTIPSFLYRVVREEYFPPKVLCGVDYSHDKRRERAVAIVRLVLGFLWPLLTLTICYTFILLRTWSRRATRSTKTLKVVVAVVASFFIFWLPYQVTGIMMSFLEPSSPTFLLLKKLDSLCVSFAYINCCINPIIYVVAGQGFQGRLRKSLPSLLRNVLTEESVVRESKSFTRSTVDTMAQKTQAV

half-maximal effective concentration (EC50) in chemotaxis assay of BA/F3/huC5aR cells [nM]	Substance
0.1	recombinant human C5a (from UniProt P01031 678-751) (ligand)
0.3	mouse C5a (from UniProt P06684 679-755) (ligand)
